Assay results taken from publication PMC12136450 (PLOS Biology, 2025).

T1: His-tagged Cpe1tox^C362A (catalytically inactive toxin domain) (Escherichia coli strain ATCC 11775, UniProt P0DXX9 338-479, C362A)
T1 construct: not shown: His6, N-terminal, kept
T1 sequence: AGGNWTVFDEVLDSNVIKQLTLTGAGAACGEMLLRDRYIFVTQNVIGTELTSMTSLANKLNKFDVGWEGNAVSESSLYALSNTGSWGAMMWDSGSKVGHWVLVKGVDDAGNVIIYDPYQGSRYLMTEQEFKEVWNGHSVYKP

T2: His-tagged Cpe1tox^C362A (catalytically inactive toxin domain) (Escherichia coli strain ATCC 11775, UniProt P0DXX9 338-479, C362A)
T2 sequence: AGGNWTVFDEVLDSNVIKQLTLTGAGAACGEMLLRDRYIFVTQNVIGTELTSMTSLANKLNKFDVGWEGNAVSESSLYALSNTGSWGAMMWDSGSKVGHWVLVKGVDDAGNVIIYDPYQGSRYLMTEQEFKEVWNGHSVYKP


Experiments:
[1] = molecular target: ATPase domain of ParE, strep-tagged (E. coli); test: BLI; […]; 30 °C; PBS with 0.2% BSA, 0.02% Tween-20; association and dissociation 120 s; […]
[2] = molecular target: T1, His-tagged Cpe1tox^C362A (catalytically …); test: BLI; […]; 30 °C; PBS with 0.2% BSA, 0.02% Tween-20; association 150 s, dissociation 300 s; 1:1 global fit; settings: both partners purified
[3] = molecular target: T2, His-tagged Cpe1tox^C362A (catalytically …); test: BLI

Row | Binder | Kd [1] [nM] | Kd [2] [nM] | koff [3] [s⁻¹]
1 | His-tagged Cpe1tox^C362A (catalytically inactive toxin domain) (domain or fragment) AGGNWTVFDEVLDSNVIKQLTLTGAGAACGEMLLRDRYIFVTQNVIGTELTSMTSLANKLNKFDVGWEGNAVSESSLYALSNTGSWGAMMWDSGSKVGHWVLVKGVDDAGNVIIYDPYQGSRYLMTEQEFKEVWNGHSVYKP | 343 |  | 
2 | strep-tagged Cpi1 (wild type) (natural protein, source: E. coli BL21 (DE3), pETDuet-1, purified (streptavidin resin, gel filtration)) MGIVFTNHNIDLLSVEFDEITKNCNYTFSVDGETAIFTARISIIRNIKGIKYSEELDKFIMSIMPLQPKVSKILGGVTWDCICGKEVGFPVRLIGK |  | 8.58 | 0.00303
3 | ATPase domain of ParE, strep-tagged (domain or fragment, C-terminal strep tag left out. Limits are not given; 1-390 is taken from the 43-kDa ATPase domain in PDB 1S16 (390 aa), which the paper uses for ParE. The K-12 strain is inferred.) MTQTYNADAIEVLTGLEPVRRRPGMYTDTTRPNHLGQEVIDNSVDEALAGHAKRVDVILHADQSLEVIDDGRGMPVDIHPEEGVPAVELILCRLHAGGKFSNKNYQFSGGLHGVGISVVNALSKRVEVNVRRDGQVYNIAFENGEKVQDLQVVGTCGKRNTGTSVHFWPDETFFDSPRFSVSRLTHVLKAKAVLCPGVEITFKDEINNTEQRWCYQDGLNDYLAEAVNGLPTLPEKPFIGNFAGDTEAVDWALLWLPEGGELLTESYVNLIPTMQGGTHVNGLRQGLLDAMREFCEYRNILPRGVKLSAEDIWDRCAYVLSVKMQDPQFAGQTKERLSSRQCAAFVSGVVKDAFILWLNQNVQAAELLAEMAISSAQRRMRAAKKVVRKK |  |  | 0.47
